Assay results as given in publication PMC11218954 (PLOS ONE, 2024).
Values joined by “and” are separate entries in the source; they are usually repeats but may differ in a detail not shown here. Equal values may be shown once.

biological target: T1, soluble recombinant F1 antigen, monomer-enriched (Yersinia pestis, strain , UniProt P26948); experiment: SPR; conditions: both partners purified
T1 construct: source: bought: BEI Resources NR-44223, expressed in E. coli, monomer enriched

Binder	Kd [nM]
αF1Ig AM8 (affinity matured anti-F1 immunoglobulin G type 1) (antibody, V domains shown, IgG1; also called aF1Ig AM8; αF1 AM8; source: HEK293 cells, produced by ATUM, purified IgG) VH: QVQLQQWGAGLLKPSETLSLTCAVYGGSFSGYYWSWIRQPPGKGLEWIGEINRSGNTNYNPSLKSRVTISVDTSKNQFSLQLNSVTPEDTAVYYCARTRGYFDLWGRGTLVTVSS VL: QPVLTQSPSVSVSPGQTASITCSGDKLGGRYASWYQQKPGQSPVLVIYQDTKRPSGIPERFSGSNSGNTATLTISGTQAMDEADYYCQSWDSSAAVFGTGTKLTVL	1.9
αF1Ig 8 (parental anti-F1 immunoglobulin G type 1) (antibody, V domains shown, IgG1; also called parental IgG 8; original anti-F1 IgG 8; source: HEK293 cells, produced by ATUM, purified IgG) VH: QVQLQQWGAGLLKPSETLSLTCAVYGGSFSGYYWSWIRQPPGKGLEWIGEINHSGNTNYNPSLKSRVTISVDTSKNQFSLQLNSVTPEDTAVYYCARTRGYFDLWGRGTLVTVSS VL: QPVLTQSPSVSVSPGQTASITCSGDKLGDRYASWYQQKPGQSPVLVIYQDTKRPSGIPERFSGSNSGNTATLTISGTQAMDEADYYCQSWDSSAAVFGTGTKLTVL	7.4
αF1Ig AM2 (affinity matured anti-F1 immunoglobulin G type 1) (antibody, V domains shown, IgG1; also called αF1 AM2; source: HEK293 cells, produced by ATUM, purified IgG) VH: QVQLVESGGGLVKPGGSLRLSCAASGFTFSDYYMSWIRQAPGKGLEWVSYISGSGSIIYYADSVKGRFTISRDNAKNSLYLQMNSLRAEDTAVYYCAKEIRKHDAFDIWGQGTMVTVSS VL: DIRMTQSPSSLSASVGDRVTITCRASRSISGYLNWYQQKPGKAPKLLIYATSSLQSGVPSRFSGSGSGTDFTLTISSLQPEDFATYYCQQSYSTPSSFGQGTKVDIK	2.7
αF1Ig 2 (parental anti-F1 immunoglobulin G type 1) (antibody, V domains shown, IgG1; also called parental IgG 2; original anti-F1 IgG 2; source: HEK293 cells, produced by ATUM, purified IgG) VH: QVQLVESGGGLVKPGGSLRLSCAASGFTFSDYYMSWIRQAPGKGLEWVSYISSSGSIIYYADSVKGRFTISRDNAKNSLYLQMNSLRAEDTAVYYCAKEIRRHDAFDIWGQGTMVTVSS VL: not shown	1.9

biological target: T2, recombinant F1 antigen of Y. pestis, monomer enriched (Yersinia pestis, strain , UniProt P26948); experiment: SPR; conditions: both partners purified
T2 construct: source: expressed in E. coli; BEI NR-44223, monomer enriched

Binder	Kd
αF1Ig 8 (antibody, V domains shown, also called aF1Ig 8; aF1_8; source: HEK293 cells, produced by ATUM; purified IgG) VH: QVQLQQWGAGLLKPSETLSLTCAVYGGSFSGYYWSWIRQPPGKGLEWIGEINHSGNTNYNPSLKSRVTISVDTSKNQFSLQLNSVTPEDTAVYYCARTRGYFDLWGRGTLVTVSS VL: QPVLTQSPSVSVSPGQTASITCSGDKLGDRYASWYQQKPGQSPVLVIYQDTKRPSGIPERFSGSNSGNTATLTISGTQAMDEADYYCQSWDSSAAVFGTGTKLTVL	5.6 nM and 9.7 nM and 7.4 nM and 6 nM
αF1Ig AM8 (antibody, V domains shown, also called aF1Ig AM8; source: HEK293 cells, produced by ATUM; purified IgG) VH: QVQLQQWGAGLLKPSETLSLTCAVYGGSFSGYYWSWIRQPPGKGLEWIGEINRSGNTNYNPSLKSRVTISVDTSKNQFSLQLNSVTPEDTAVYYCARTRGYFDLWGRGTLVTVSS VL: QPVLTQSPSVSVSPGQTASITCSGDKLGGRYASWYQQKPGQSPVLVIYQDTKRPSGIPERFSGSNSGNTATLTISGTQAMDEADYYCQSWDSSAAVFGTGTKLTVL	1.5 nM and 2.4 nM and 1.3 nM and 1.6 nM
αF1Ig AM2 (antibody, V domains shown, also called aF1Ig AM2; source: HEK293 cells, produced by ATUM; purified IgG) VH: QVQLVESGGGLVKPGGSLRLSCAASGFTFSDYYMSWIRQAPGKGLEWVSYISGSGSIIYYADSVKGRFTISRDNAKNSLYLQMNSLRAEDTAVYYCAKEIRKHDAFDIWGQGTMVTVSS VL: DIRMTQSPSSLSASVGDRVTITCRASRSISGYLNWYQQKPGKAPKLLIYATSSLQSGVPSRFSGSGSGTDFTLTISSLQPEDFATYYCQQSYSTPSSFGQGTKVDIK	2.4 nM and 2.3 nM and 1.2 nM
αF1Ig 2 (antibody, V domains shown, also called aF1Ig 2; aF1_2; source: HEK293 cells, produced by ATUM; purified IgG) VH: QVQLVESGGGLVKPGGSLRLSCAASGFTFSDYYMSWIRQAPGKGLEWVSYISSSGSIIYYADSVKGRFTISRDNAKNSLYLQMNSLRAEDTAVYYCAKEIRRHDAFDIWGQGTMVTVSS VL: not shown	2.2 nM and 1.3 nM and 2.8 nM and 1.2 nM
